The experiment addresses biotinylated Calmodulin-binding peptide, biotin-…. Put plainly: model selection from a 4200:1 mixture (ED-B:Calmodulin templates) on peptide-coated magnetic beads; 35-cycle PCR, 1:10^5 dilution, real-time PCR on 1 µl; background carry-over of the excess non-binder. For orientation: Quantitative PCR measures a nucleic acid by following its amplification.

biotinylated Calmodulin-binding peptide, biotin-…, sequence (peptide, as listed by the source): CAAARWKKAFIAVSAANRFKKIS

“M.Hae III-ED-B fusion protein (covalently bonded to the linear DNA coding for it) (from UniProt P20589 1-330; P02751 1266-1356)”: the DNA molecules detected after selection (DNA molecules) came out at 1.4e+06.

(Values after patent US7527954.)
